Assays:
[1] = tested on: HeLa Kyoto; assay: melting temperature (median over replicates), in situ; higher = more thermally stable
[2] = tested on: HeLa Kyoto; assay: solubility in G1/S (NP-40 vs SDS abundance) (log2 ratio); higher = more soluble; details: cell cycle stage: G1/S
[3] = tested on: HeLa Kyoto; assay: thermal stability score vs G1/S (z-score of summed log2 fold changes over temperatures); higher = more thermally stable than in G1/S
[4] = tested on: HeLa Kyoto; assay: solubility change mitosis vs G1/S (difference of NP-40 vs SDS log2 ratios) (log2 ratio difference); higher = more soluble in mitosis
[5] = cell cycle stage: early G1 (4.5 h after nocodazole release)
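Throughout, for melting temperature (median over replicates), in situ: HeLa Kyoto cells synchronized by double thymidine or nocodazole block, proteins quantified by TMT10plex mass spectrometry, three independent biological replicates.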
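Throughout, for solubility change mitosis vs G1/S (difference of NP-40 vs SDS log2 ratios): synchronized HeLa Kyoto cells (double thymidine block for G1/S, nocodazole release for mitosis), protein amounts in NP-40 versus SDS lysates quantified by mass spectrometry, three biological replicates.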
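Throughout, for solubility in G1/S (NP-40 vs SDS abundance): HeLa Kyoto cells arrested at G1/S by double thymidine block, proteins quantified by TMT10plex mass spectrometry in mild NP-40 versus SDS extracts, three biological replicates.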
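Throughout, for thermal stability score vs G1/S (z-score of summed log2 fold changes over temperatures): synchronized HeLa Kyoto cells, proteins quantified by TMT10plex mass spectrometry, three biological replicates, mitosis taken 0.5 h after nocodazole release, G1/S directly after double thymidine block.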

Row | Sequence | melting temperature ([1]; cell cycle stage: G1/S) | melting temperature ([1]; cell cycle stage: mitosis) | solubility in G1/S (log2) [2] | thermal stability score [3, 5] | thermal stability score ([3]; cell cycle stage: mitosis) | solubility change mitosis (log2) [4]
1 | MEKRLGVKPNPASWILSGYYWQTSAKWLRSLYLFYTCFCFSVLWLSTDASESRCQQGKTQFGVGLRSGGENHLWLLEGTPSLQSCWAACCQDSACHVFWWLEGMCIQADCSRPQSCRAFRTHSSNSMLVFLKKFQTADDLGFLPEDDVPHLLGLGWNWASWRQSPPRAALRPAVSSSDQQSLIRKLQKRGSPSDVVTPIVTQHSKVNDSNELGGLTTSGSAEVHKAITISSPLTTDLTAELSGGPKNVSVQPEISEGLATTPSTQQVKSSEKTQIAVPQPVAPSYSYATPTPQASFQSTSAPYPVIKELVVSAGESVQITLPKNEVQLNAYVLQEPPKGETYTYDWQLITHPRDYSGEMEGKHSQILKLSKLTPGLYEFKVIVEGQNAHGEGYVNVTVKPEPRKNRPPIAIVSPQFQEISLPTTSTVIDGSQSTDDDKIVQYHWEELKGPLREEKISEDTAILKLSKLVPGNYTFSLTVVDSDGATNSTTANLTVNKAVDYPPVANAGPNQVITLPQNSITLFGNQSTDDHGITSYEWSLSPSSKGKVVEMQGVRTPTLQLSAMQEGDYTYQLTVTDTIGQQATAQVTVIVQPENNKPPQADAGPDKELTLPVDSTTLDGSKSSDDQKIISYLWEKTQGPDGVQLENANSSVATVTGLQVGTYVFTLTVKDERNLQSQSSVNVIVKEEINKPPIAKITGNVVITLPTSTAELDGSKSSDDKGIVSYLWTRDEGSPAAGEVLNHSDHHPILFLSNLVEGTYTFHLKVTDAKGESDTDRTTVEVKPDPRKNNLVEIILDINVSQLTERLKGMFIRQIGVLLGVLDSDIIVQKIQPYTEQSTKMVFFVQNEPPHQIFKGHEVAAMLKSELRKQKADFLIFRALEVNTVTCQLNCSDHGHCDSFTKRCICDPFWMENFIKVQLRDGDSNCEWSVLYVIIATFVIVVALGILSWTVICCCKRQKGKPKRKSKYKILDATDQESLELKPTSRAGIKQKGLLLSSSLMHSESELDSDDAIFTWPDREKGKLLHGQNGSVPNGQTPLKARSPREEIL [KIAA0319L] | 58.5 °C | 56.2 °C | 0.0342 | -3.99 | -5.23 | 0.0841
2 | MGDPERPEAAGLDQDERSSSDTNESEIKSNEEPLLRKSSRRFVIFPIQYPDIWKMYKQAQASFWTAEEVDLSKDLPHWNKLKADEKYFISHILAFFAASDGIVNENLVERFSQEVQVPEARCFYGFQILIENVHSEMYSLLIDTYIRDPKKREFLFNAIETMPYVKKKADWALRWIADRKSTFGERVVAFAAVEGVFFSGSFAAIFWLKKRGLMPGLTFSNELISRDEGLHCDFACLMFQYLVNKPSEERVREIIVDAVKIEQEFLTEALPVGLIGMNCILMKQYIEFVADRLLVELGFSKVFQAENPFDFMENISLEGKTNFFEKRVSEYQRFAVMAETTDNVFTLDADF [RRM2B] | 56.5 °C | 54.2 °C | 0.00384 | -1.2 | 0.292 | -0.132
3 | MPSSLLGAAMPASTSAAALQEALENAGRLIDRQLQEDRMYPDLSELLMVSAPNNPTVSGMSDMDYPLQGPGLLSVPNLPEISSIRRVPLPPELVEQFGHMQCNCMMGVFPPISRAWLTIDSDIFMWNYEDGGDLAYFDGLSETILAVGLVKPKAGIFQPHVRHLLVLATPVDIVILGLSYANLQTGSGVLNDSLSGGMQLLPDPLYSLPTDNTYLLTITSTDNGRIFLAGKDGCLYEVAYQAEAGWFSQRCRKINHSKSSLSFLVPSLLQFTFSEDDPILQIAIDNSRNILYTRSEKGVIQVYDLGQDGQGMSRVASVSQNAIVSAAGNIARTIDRSVFKPIVQIAVIENSESLDCQLLAVTHAGVRLYFSTCPFRQPLARPNTLTLVHVRLPPGFSASSTVEKPSKVHRALYSKGILLMAASENEDNDILWCVNHDTFPFQKPMMETQMTAGVDGHSWALSAIDELKVDKIITPLNKDHIPITDSPVVVQQHMLPPKKFVLLSAQGSLMFHKLRPVDQLRHLLVSNVGGDGEEIERFFKLHQEDQACATCLILACSTAACDREVSAWATRAFFRYGGEAQMRFPTTLPPPSNVGPILGSPVYSSSPVPSGSPYPNPSFLGTPSHGIQPPAMSTPVCALGNPATQATNMSCVTGPEIVYSGKHNGICIYFSRIMGNIWDASLVVERIFKSGNREITAIESSVPCQLLESVLQELKGLQEFLDRNSQFAGGPLGNPNTTAKVQQRLIGFMRPENGNPQQMQQELQRKFHEAQLSEKISLQAIQQLVRKSYQALALWKLLCEHQFTIIVAELQKELQEQLKITTFKDLVIRDKELTGALIASLINCYIRDNAAVDGISLHLQDICPLLYSTDDAICSKANELLQRSRQVQNKTEKERMLRESLKEYQKISNQVDLSNVCAQYRQVRFYEGVVELSLTAAEKKDPQGLGLHFYKHGEPEEDIVGLQAFQERLNSYKCITDTLQELVNQSKAAPQSPSVPKKPGPPVLSSDPNMLSNEEAGHHFEQMLKLSQRSKDELFSIALYNWLIQVDLADKLLQVASPFLEPHLVRMAKVDQNRVRYMDLLWRYYEKNRSFSNAARVLSRLADMHSTEISLQQRLEYIARAILSAKSSTAISSIAADGEFLHELEEKMEVARIQLQIQETLQRQYSHHSSVQDAVSQLDSELMDITKLYGEFADPFKLAECKLAIIHCAGYSDPILVQTLWQDIIEKELSDSVTLSSSDRMHALSLKIVLLGKIYAGTPRFFPLDFIVQFLEQQVCTLNWDVGFVIQTMNEIGVPLPRLLEVYDQLFKSRDPFWNRMKKPLHLLDCIHVLLIRYVENPSQVLNCERRRFTNLCLDAVCGYLVELQSMSSSVAVQAITGNFKSLQAKLERLH [NUP155] | 50.6 °C | 48.8 °C | -0.247 | -2.62 | -3.4 | -0.126
4 | MAVKKIAIFGATGQTGLTTLAQAVQAGYEVTVLVRDSSRLPSEGPRPAHVVVGDVLQAADVDKTVAGQDAVIVLLGTRNDLSPTTVMSEGARNIVAAMKAHGVDKVVACTSAFLLWDPTKVPPRLQAVTDDHIRMHKVLRESGLKYVAVMPPHIGDQPLTGAYTVTLDGRGPSRVISKHDLGHFMLRCLTTDEYDGHSTYPSHQYQ [BLVRB] | 50.4 °C | 50.7 °C | 0.417 | 4.14 | 2.47 | -0.116
5 | MADESETAVKPPAPPLPQMMEGNGNGHEHCSDCENEEDNSYNRGGLSPANDTGAKKKKKKQKKKKEKGSETDSAQDQPVKMNSLPAERIQEIQKAIELFSVGQGPAKTMEEASKRSYQFWDTQPVPKLGEVVNTHGPVEPDKDNIRQEPYTLPQGFTWDALDLGDRGVLKELYTLLNENYVEDDDNMFRFDYSPEFLLWALRPPGWLPQWHCGVRVVSSRKLVGFISAIPANIHIYDTEKKMVEINFLCVHKKLRSKRVAPVLIREITRRVHLEGIFQAVYTAGVVLPKPVGTCRYWHRSLNPRKLIEVKFSHLSRNMTMQRTMKLYRLPETPKTAGLRPMETKDIPVVHQLLTRYLKQFHLTPVMSQEEVEHWFYPQENIIDTFVVENANGEVTDFLSFYTLPSTIMNHPTHKSLKAAYSFYNVHTQTPLLDLMSDALVLAKMKGFDVFNALDLMENKTFLEKLKFGIGDGNLQYYLYNWKCPSMGAEKVGLVLQ [NMT1] | 53.9 °C | 53.5 °C | -0.131 | -0.333 | -0.823 | 0.1
6 | MARRGWRRAPLRRGVGSSPRARRLMRPLWLLLAVGVFDWAGASDGGGGEARAMDEEIVSEKQAEESHRQDSANLLIFILLLTLTILTIWLFKHRRARFLHETGLAMIYGLLVGLVLRYGIHVPSDVNNVTLSCEVQSSPTTLLVNVSGKFYEYMLKGEISSHELNNVQDNEMLRKVTFDPEVFFNILLPPIIFYAGYSLKRRHFFRNLGSILAYAFLGTAISCFVIGSIMYGCVTLMKVTGQLAGDFYFTDCLLFGAIVSATDPVTVLAIFHELQVDVELYALLFGESVLNDAVAIVLSSSIVAYQPAGDNSHTFDVTAMFKSIGIFLGIFSGSFAMGAATGVVTALVTKFTKLREFQLLETGLFFLMSWSTFLLAEAWGFTGVVAVLFCGITQAHYTYNNLSTESQHRTKQLFELLNFLAENFIFSYMGLTLFTFQNHVFNPTFVVGAFVAIFLGRAANIYPLSLLLNLGRRSKIGSNFQHMMMFAGLRGAMAFALAIRDTATYARQMMFSTTLLIVFFTVWVFGGGTTAMLSCLHIRVGVDSDQEHLGVPENERRTTKAESAWLFRMWYNFDHNYLKPLLTHSGPPLTTTLPACCGPIARCLTSPQAYENQEQLKDDDSDLILNDGDISLTYGDSTVNTEPATSSAPRRFMGNSSEDALDRELAFGDHELVIRGTRLVLPMDDSEPPLNLLDNTRHGPA [SLC9A6] | 56.1 °C | 57.1 °C | 0.0823 | -2.9 | -3.5 | -0.268
7 | MWGACKVKVHDSLATISITLRRYLRLGATMAKSKFEYVRDFEADDTCLAHCWVVVRLDGRNFHRFAEKHNFAKPNDSRALQLMTKCAQTVMEELEDIVIAYGQSDEYSFVFKRKTNWFKRRASKFMTHVASQFASSYVFYWRDYFEDQPLLYPPGFDGRVVVYPSNQTLKDYLSWRQADCHINNLYNTVFWALIQQSGLTPVQAQGRLQGTLAADKNEILFSEFNINYNNELPMYRKGTVLIWQKVDEVMTKEIKLPTEMEGKKMAVTRTRTKPVPLHCDIIGDAFWKEHPEILDEDS [THG1L] | 53.3 °C | 53.5 °C | -0.0679 | 0.242 | -0.354 | -0.0698
8 | MTSELDIFVGNTTLIDEDVYRLWLDGYSVTDAVALRVRSGILEQTGATAAVLQSDTMDHYRTFHMLERLLHAPPKLLHQLIFQIPPSRQALLIERYYAFDEAFVREVLGKKLSKGTKKDLDDISTKTGITLKSCRRQFDNFKRVFKVVEEMRGSLVDNIQQHFLLSDRLARDYAAIVFFANNRFETGKKKLQYLSFGDFAFCAELMIQNWTLGAVGEAPTDPDSQMDDMDMDLDKEFLQDLKELKVLVADKDLLDLHKSLVCTALRGKLGVFSEMEANFKNLSRGLVNVAAKLTHNKDVRDLFVDLVEKFVEPCRSDHWPLSDVRFFLNQYSASVHSLDGFRHQALWDRYMGTLRGCLLRLYHD [FIBP] | 50.3 °C | 49.5 °C | -0.45 | -0.876 | 0.233 | -0.13
